Experimental data taken from publication PMC12513289 (The Journal of Biological Chemistry, 2025).

Molecular target: the molecule itself
Assay: mass photometry, R534* homodimer

B1: human AsnRS R534∗ (ΔR534-P548), N-terminal 6xHis tag (enzyme, UniProt O43776 1-533, looked up)
chain: MVLAELYVSDREGSDATGDGTKEKPFKTGLKALMTVGKEPFPTIYVDSQKENERWNVISKSQLKNIKKMWHREQMKSESREKKEAEDSLRREKNLEEAKKITIKNDPSLPEPKCVKIGALEGYRGQRVKVFGWVHRLRRQGKNLMFLVLRDGTGYLQCVLADELCQCYNGVLLSTESSVAVYGMLNLTPKGKQAPGGHELSCDFWELIGLAPAGGADNLINEESDVDVQLNNRHMMIRGENMSKILKARSMVTRCFRDHFFDRGYYEVTPPTLVQTQVEGGATLFKLDYFGEEAFLTQSSQLYLETCLPALGDVFCIAQSYRAEQSRTRRHLAEYTHVEAECPFLTFDDLLNRLEDLVCDVVDRILKSPAGSIVHELNPNFQPPKRPFKRMNYSDAIVWLKEHDVKKEDGTFYEFGEDIPEAPERLMTDTINEPILLCRFPVEIKSFYMQRCPEDSRLTESVDVLMPNVGEIVGGSMRIFDSEEILAGYKREGIDPTPYYWYTDQRKYGTCPHGGYGLGLERFLTWILNRYHI
notes: also called His-R534∗; R534∗ mutant; source: E. coli BL21(DE3) or BL21 ClearColi, purified (Ni-NTA, heparin, SEC); not shown: His6, N-terminal, kept
B1 gave a Kd of 54.4 nM.
